US20060281073A1

Target: αv integrins on NIH3T3 cells (αvβ3 and αvβ5) (mouse) (UniProt P43406)
Experiment: cell-based or functional assay

Sequence of UniProt P43406 (P43406 whole entry): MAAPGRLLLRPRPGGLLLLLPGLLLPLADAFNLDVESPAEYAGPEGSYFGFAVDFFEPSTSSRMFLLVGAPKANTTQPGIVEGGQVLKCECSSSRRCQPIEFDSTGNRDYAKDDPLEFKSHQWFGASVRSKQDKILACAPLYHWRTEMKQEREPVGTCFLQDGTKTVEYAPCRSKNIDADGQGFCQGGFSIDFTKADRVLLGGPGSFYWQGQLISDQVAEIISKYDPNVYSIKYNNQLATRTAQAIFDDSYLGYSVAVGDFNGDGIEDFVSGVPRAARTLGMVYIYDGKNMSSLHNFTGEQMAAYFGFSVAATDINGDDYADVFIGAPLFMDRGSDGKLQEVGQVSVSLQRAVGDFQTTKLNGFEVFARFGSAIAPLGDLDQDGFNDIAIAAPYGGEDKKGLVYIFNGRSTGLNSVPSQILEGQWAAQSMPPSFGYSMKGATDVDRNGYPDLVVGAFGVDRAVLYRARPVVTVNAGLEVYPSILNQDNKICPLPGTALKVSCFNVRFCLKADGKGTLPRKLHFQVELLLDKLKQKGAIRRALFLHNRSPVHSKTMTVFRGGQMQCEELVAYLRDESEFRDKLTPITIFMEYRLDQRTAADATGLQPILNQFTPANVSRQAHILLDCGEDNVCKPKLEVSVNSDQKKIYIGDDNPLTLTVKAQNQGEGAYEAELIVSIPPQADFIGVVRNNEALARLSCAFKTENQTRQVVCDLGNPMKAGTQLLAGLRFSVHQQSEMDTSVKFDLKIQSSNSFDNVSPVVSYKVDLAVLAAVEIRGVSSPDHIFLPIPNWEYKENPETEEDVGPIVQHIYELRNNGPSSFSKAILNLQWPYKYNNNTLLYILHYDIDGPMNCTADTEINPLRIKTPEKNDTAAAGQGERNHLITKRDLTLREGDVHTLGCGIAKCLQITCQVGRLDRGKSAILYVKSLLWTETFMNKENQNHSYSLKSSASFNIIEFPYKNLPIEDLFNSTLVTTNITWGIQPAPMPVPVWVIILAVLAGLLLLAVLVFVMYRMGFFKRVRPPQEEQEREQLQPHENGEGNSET

GRGDSP [RGD peptide (GRGDSP)]
reduction of transduction of Ad5luc-L1 in NIH3T3 cells compared to control RGE peptide: 40 % reduction
reduction of transduction of Ad5luc-L16 in NIH3T3 cells compared to control RGE peptide: 60 % reduction
reduction of transduction of Ad5luc-L33 in NIH3T3 cells compared to control RGE peptide: 61 % reduction
